This series is described as follows: hGH stability in HEC gel at 32° C. (RP, SEC, IE HPLC). The format is physicochemical. As to conditions: for hGH remaining intact: HEC gel, 32° C., after 6 hours. On the procedure:
A sufficient quantity of His-Gly from BACHEM Bioscience was added to distilled water to make a 12.5 mM buffer solution having a pH of 6.75. A human growth hormone (hGH) formulation obtained from BresaGen contained growth hormone, mannitol and glycine in the following proportions: 1:5:1 (w/w). The original hGH formulation was subjected to purification (diafiltration against 12.5 mM His-Gly buffer to remove the mannitol and glycine) and the hGH concentration was adjusted to about 20 mg/ml via ultrafiltration.
Aliquots of 250 μl of the resulting hGH stock solution were placed into Eppendorf tubes, each containing 5 mg (2%) of hydroxyethyl cellulose (HEC) as a gelling agent and the samples were carefully mixed. After gelation, the samples were tested for stability at body temperature. The samples were warmed to 32° C. (ie, skin temperature) and assayed at 0, 1, 2, 3, 4, 5, and 6 hours to determine the percent of hGH remaining intact in the gel. hGH from the gels was extracted by dissolving the gel in 25 ml of His-Gly buffer. All hGH samples were analyzed by reverse-phase high performance liquid chromatography (RP), size-exclusion high performance liquid chromatography (SEC), and ion-exchange high performance liquid chromatography (IE) to determine percentage of intact hGH remaining (%LS in FIG. 9). The percent of hGH remaining was calculated by measuring the concentration of the hGH (as determined using one of three high performance liquid chromatography methods) and dividing that by the initial hGH concentration.
As a comparison, hGH stability studies were run under identical conditions to those described above, except histidine buffer was substituted for His-Gly.

Where [1] appears, read: His-Gly buffered hGH gel stored at 32° C.

With “hGH: human growth hormone formulation obtained from BresaGen, diafiltered against buffer, about 20 mg/ml in 2% HEC gel”, under “His-Gly buffer 12.5 mM”, the hGH remaining intact result was “about 80%”. Also, under setting [1], the degradation products result is “No extra degradation products were discovered” and the “loss of protein through degradation” value is “no significant loss of protein through degradation”. Further, the hGH remaining intact entry (histidine buffer) is on record as “approximately 50%”.

These data come from US20070078096A1, “Buffered drug formulations for transdermal electrotransport delivery” (priority 1997, published 2007).
